Measurements: patent US20190106487A1 (Sanofi, published 2019)

Columns and labels:
[1] = target: T1, human IL-1RAcP on 293T/17-FR cells (human, UniProt Q9NPH3 21-570); experiment: cell-based or functional assay
T1 sequence (looked up): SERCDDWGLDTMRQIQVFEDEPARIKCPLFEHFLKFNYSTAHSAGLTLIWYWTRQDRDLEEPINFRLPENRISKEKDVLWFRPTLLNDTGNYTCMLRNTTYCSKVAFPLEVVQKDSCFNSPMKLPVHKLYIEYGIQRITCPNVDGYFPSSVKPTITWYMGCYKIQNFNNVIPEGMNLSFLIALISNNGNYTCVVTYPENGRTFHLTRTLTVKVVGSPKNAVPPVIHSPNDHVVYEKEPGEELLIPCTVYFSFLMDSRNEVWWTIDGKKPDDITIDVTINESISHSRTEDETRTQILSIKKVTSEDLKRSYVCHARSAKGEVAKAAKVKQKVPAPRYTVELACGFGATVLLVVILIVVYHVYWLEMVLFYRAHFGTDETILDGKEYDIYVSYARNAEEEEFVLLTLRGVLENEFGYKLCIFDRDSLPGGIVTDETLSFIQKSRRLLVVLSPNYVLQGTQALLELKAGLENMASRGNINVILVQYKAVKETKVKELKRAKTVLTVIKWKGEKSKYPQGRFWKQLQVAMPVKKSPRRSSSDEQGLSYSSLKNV

mIL1RAcP-Fc [2] = target: T2, mIL1RAcP-Fc (murine, UniProt Q61730 21-359); experiment: ELISA, recombinant purified mAb
T2 construct: also called P013_04; P013-04
T2 sequence (looked up): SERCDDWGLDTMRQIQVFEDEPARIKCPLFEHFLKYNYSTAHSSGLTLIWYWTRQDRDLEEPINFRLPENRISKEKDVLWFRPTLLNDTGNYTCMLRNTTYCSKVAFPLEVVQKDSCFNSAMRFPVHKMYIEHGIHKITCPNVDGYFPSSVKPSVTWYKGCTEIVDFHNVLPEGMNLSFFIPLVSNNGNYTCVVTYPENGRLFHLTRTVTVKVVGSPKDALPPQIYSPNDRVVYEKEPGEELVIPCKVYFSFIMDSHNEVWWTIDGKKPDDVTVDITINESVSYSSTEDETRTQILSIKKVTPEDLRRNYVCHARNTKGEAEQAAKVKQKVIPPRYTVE

rhIL-1RAcP/Fc Chimera [3] = target: T3, rhIL-1RAcP/Fc Chimera (human, UniProt Q9NPH3 21-359); experiment: ELISA, primary supernatant, coated hu-IL-1RAcP-Fc
T3 construct: also called P013_03; P013-03
T3 sequence (looked up): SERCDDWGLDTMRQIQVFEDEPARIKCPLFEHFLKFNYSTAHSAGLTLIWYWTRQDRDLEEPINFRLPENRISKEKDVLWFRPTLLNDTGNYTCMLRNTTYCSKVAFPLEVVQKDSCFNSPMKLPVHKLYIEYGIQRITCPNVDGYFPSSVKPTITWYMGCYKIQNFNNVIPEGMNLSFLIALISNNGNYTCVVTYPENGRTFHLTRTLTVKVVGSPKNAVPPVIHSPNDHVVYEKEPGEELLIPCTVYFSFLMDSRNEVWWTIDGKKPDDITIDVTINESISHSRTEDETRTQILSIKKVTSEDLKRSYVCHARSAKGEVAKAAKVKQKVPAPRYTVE
Summary of the method: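 Plates coated with 0.5 μg/mL Fc-tagged human IL-1RAcP; rabbit B-cell supernatant antibodies detected by peroxidase anti-rabbit IgG Fab2 and TMB, absorbance 450/620 nm. Parallel IL12Rβ1-Fc coating served as counterscreen to exclude tag binders.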

mIL1RAcP-Fc [4] = target: T2, mIL1RAcP-Fc; experiment: ELISA, primary supernatant, coated mu-IL-1RAcP-Fc
rhIL-1RAcP/Fc Chimera [5] = target: T3, rhIL-1RAcP/Fc Chimera; experiment: ELISA, recombinant purified mAb

B1: P013.S.02.B.F05 (antibody, V domains shown)
VH: RSLEESGGDLVKPGTSLTLTCTASGFSFSGNYYMCWVRQAPGKGLEWIACIVVGSGGNTYYAGWAKRRFTISKTSSTTVTLQMTSLTAADTATYFCASGSYDDYGDYWYFTLWGQGTLVTVSS
VL: AIDMTQTPSPASAGVGDTVTINCQASENIYNFLAWYQQKPGHSPKLLIYVASKLASGVPSRFKGSGSGTQFTLTISDVQSDDAATYYCQQTYRYNDGDTAFGGGTEVVVK
notes: rabbit monoclonal antibody; also called P013.A.00109.B04
- functional reporter gene assay (% inhibition), 0.04 µg/mL mAb [1]: 15%
- functional reporter gene assay (% inhibition), 0.2 µg/mL mAb [1]: 5%
- functional reporter gene assay (% inhibition), 1 µg/mL mAb [1]: 11%
- functional reporter gene assay (% inhibition), 5 µg/mL mAb [1]: -2%
- primary supernatant functional assay (% inh.), NF-kB luciferase reporter [1]: 40%
- EC50 (mIL1RAcP-Fc [2]): 0.044 µg/mL
- hu-IL1RaP ELISA (OD) (rhIL-1RAcP/Fc Chimera [3]): 0.1 OD
- mu-IL1RaP ELISA (OD) (mIL1RAcP-Fc [4]): 0.4 OD

B2: P013.S.01.B.E03 (antibody, V domains shown)
VH: QSLEESGGRLVTPGTPLTLTCTASGFSITNYHISWVRQAPGKGLEWIGYIYAGRDFTYYANWAEGRFTISKTSTTVDLQVTVPTTEDTATYFCARDGGSPNWTLDLWGQGTLVTVSS
VL: DVVMTQTPASVSEPVGGTVTINCQASESISDYLSWYQQKPGQPPKLLIYRASTLESGVSSRFKGSGSGTQFTLTISDLESADAATYYCQSNYYDSRGNAFGGGTEVVVK
notes: rabbit monoclonal antibody; also called P013.A.00015.E03
- functional reporter gene assay (% inhibition), 0.04 µg/mL mAb [1]: 54%
- functional reporter gene assay (% inhibition), 0.2 µg/mL mAb [1]: 63%
- functional reporter gene assay (% inhibition), 1 µg/mL mAb [1]: 60%
- functional reporter gene assay (% inhibition), 5 µg/mL mAb [1]: 68%
- primary supernatant functional assay (% inh.), NF-kB luciferase reporter [1]: 73%
- EC50 (rhIL-1RAcP/Fc Chimera [5]): 0.05 µg/mL
- hu-IL1RaP ELISA (OD) (rhIL-1RAcP/Fc Chimera [3]): 3.4 OD
- mu-IL1RaP ELISA (OD) (mIL1RAcP-Fc [4]): 0.1 OD

B3: P013.S.01.B.B04 (antibody, V domains shown)
VH: QSVEESGGRLVTPGTPLTLTCTVSGIDLDNYAMGWVRQAPGKGLEYIGVISSDGFFYDASWAKGRFTISKASSTTVDLKMTGLTPEDTATYFCARDRGTSTGSLDLWGQGTLVTVSS
VL: ALVMTQTPASVSEPVGGTVTIKCQASENIGNGLAWYQQKPGQPPNLLIYGASTLASGVPSRFSGSGYGTEFTLTVSDLESGDAATYYCQCTYWNPDYIGGAFGGGTEVVVT
notes: rabbit monoclonal antibody; also called P013.A.00086.E02
- functional reporter gene assay (% inhibition), 0.04 µg/mL mAb [1]: 42%
- functional reporter gene assay (% inhibition), 0.2 µg/mL mAb [1]: 83%
- functional reporter gene assay (% inhibition), 1 µg/mL mAb [1]: 93%
- functional reporter gene assay (% inhibition), 5 µg/mL mAb [1]: 99%
- primary supernatant functional assay (% inh.), NF-kB luciferase reporter [1]: 97%
- EC50 (rhIL-1RAcP/Fc Chimera [5]): 0.042 µg/mL
- hu-IL1RaP ELISA (OD) (rhIL-1RAcP/Fc Chimera [3]): 3.5 OD
- mu-IL1RaP ELISA (OD) (mIL1RAcP-Fc [4]): 0.5 OD

B4: P013.S.02.B.D05 (antibody, V domains shown)
VH: QQQLVESGGGLVKPGASLTLTCKASGFSFSSGYYMCWVRQAPGKGLEWIACIGMGSGKTYYASWAKGRFTISKTSSTTVTLQMTSLTAADTATYFCARKDGSGNEHYNLWGPGTLVTVSS
VL: DIVMTQTPASVEAAVGGTVTIRCQASQSISSYLAWYQRKPGQPPKVLIYKASTLASGVSSRFKGSGSGTEYTLTISDLESADAATYYCQQGYASSGVDNVFGGGTEVVVK
notes: rabbit monoclonal antibody; also called P013.A.00086.B09
- functional reporter gene assay (% inhibition), 0.04 µg/mL mAb [1]: 1%
- functional reporter gene assay (% inhibition), 0.2 µg/mL mAb [1]: 19%
- functional reporter gene assay (% inhibition), 1 µg/mL mAb [1]: 20%
- functional reporter gene assay (% inhibition), 5 µg/mL mAb [1]: 13%
- primary supernatant functional assay (% inh.), NF-kB luciferase reporter [1]: 42%
- EC50 (mIL1RAcP-Fc [2]): 0.206 µg/mL
- hu-IL1RaP ELISA (OD) (rhIL-1RAcP/Fc Chimera [3]): 3.2 OD
- mu-IL1RaP ELISA (OD) (mIL1RAcP-Fc [4]): 3.3 OD

B5: P013.S.02.B.H04 (antibody, V domains shown)
VH: QSVEESGGRLVKPDETLTLTCTVSGIDLSSYAMGWVRQAPGKGLEYIGIISSSGRTYYANWAKGRFTISKASSTTVDLKITSPTTEDTATYFCARLITVDYYIYDYFNLWGQGTLVTVSS
VL: AYDMTQTPASVEAAVGGTVTIKCQASQSISSYLSWYQQKPGQPPKLLIYGASTLASGVPSRFKGSGSGTEYTLTISGVESDDAATYYCQQGYSYNNVDNTFGGGTEVVVK
notes: rabbit monoclonal antibody; also called P013.A.00029.F11
- functional reporter gene assay (% inhibition), 0.04 µg/mL mAb [1]: 7%
- functional reporter gene assay (% inhibition), 0.2 µg/mL mAb [1]: -6%
- functional reporter gene assay (% inhibition), 1 µg/mL mAb [1]: 15%
- functional reporter gene assay (% inhibition), 5 µg/mL mAb [1]: 4%
- primary supernatant functional assay (% inh.), NF-kB luciferase reporter [1]: 52%
- EC50 (mIL1RAcP-Fc [2]): 0.644 µg/mL
- hu-IL1RaP ELISA (OD) (rhIL-1RAcP/Fc Chimera [3]): 3.2 OD
- mu-IL1RaP ELISA (OD) (mIL1RAcP-Fc [4]): 1.7 OD

B6: P013.S.01.B.D04 (antibody, V domains shown)
VH: QEQLKESGGRLVTPGGSLTLTCTVSGFSLSIYAMGWFRQAPGKGLEWIGDIYPGSDSTWYASWAKGRFTISKTSTTVDLKITSPTTEDTATYFCAREIDAGYVGYGFDLWGQGTLVTVSS
VL: AQALTQTPSSVSAAVGGTVTINCQSSQSVYSDYLAWYQQKPGQSPKLLIYKASKLASGVPSRFKGSGSGTEFTLTISGVQSDDAATYYCQATYYSVGWYRAFGGGTEVVVK
notes: rabbit monoclonal antibody; also called P013.A.00088.B09
- functional reporter gene assay (% inhibition), 0.04 µg/mL mAb [1]: 27%
- functional reporter gene assay (% inhibition), 0.2 µg/mL mAb [1]: 67%
- functional reporter gene assay (% inhibition), 1 µg/mL mAb [1]: 87%
- functional reporter gene assay (% inhibition), 5 µg/mL mAb [1]: 89%
- primary supernatant functional assay (% inh.), NF-kB luciferase reporter [1]: 95%
- EC50 (rhIL-1RAcP/Fc Chimera [5]): 0.247 µg/mL
- hu-IL1RaP ELISA (OD) (rhIL-1RAcP/Fc Chimera [3]): 3.9 OD
- mu-IL1RaP ELISA (OD) (mIL1RAcP-Fc [4]): 0 OD

B7: P013.S.01.B.E05 (antibody, V domains shown)
VH: QSLEESGGDLVKPGASLTLTCTASGISFSSSDFMCWVRQAPGKGLEWIACIYAGSSVSIYYATWAKGRFTISKASSTTVTLQMASLTVADTATYFCARSTGSVGRGFNLWGQGTLVTVSS
VL: AQVLTQTPSPVSAAVGGTVTISCQASQSVYNSNHLSWYQQKPGQPPRLLIYSASTLASGVPSRFKGSGSGTQFTLTISGVQSDDAATYYCQGEFSCVSADCIAFGGGTEVVVK
notes: rabbit monoclonal antibody; also called P013.A.00086.F02
- functional reporter gene assay (% inhibition), 0.04 µg/mL mAb [1]: 26%
- functional reporter gene assay (% inhibition), 0.2 µg/mL mAb [1]: 61%
- functional reporter gene assay (% inhibition), 1 µg/mL mAb [1]: 81%
- functional reporter gene assay (% inhibition), 5 µg/mL mAb [1]: 93%
- primary supernatant functional assay (% inh.), NF-kB luciferase reporter [1]: 98%
- EC50 (rhIL-1RAcP/Fc Chimera [5]): 0.966 µg/mL
- hu-IL1RaP ELISA (OD) (rhIL-1RAcP/Fc Chimera [3]): 3.6 OD
- mu-IL1RaP ELISA (OD) (mIL1RAcP-Fc [4]): -0.1 OD

B8: P013.S.02.B.E04 (antibody, V domains shown)
VH: QSLEESGGDLVKPGASLTLTCTASGFSLSSGGMSWVRQAPGKGLGWIGYINTGSGSTYYASWVNGRFTISKTSSTTVSLQMTSLTAADTATYFCAGGLPSDLWGPGTLVTVSS
VL: DIVMTQTPSSVEAAVGGTVTIKCQASQSINSRLAWYQQKPGQPPKLLIYSASTLASGVSSRFKGSGSGTEFTLTISDLESADGATYYCLSHYLTSSSSYGDAFGGGTEVVVK
notes: rabbit monoclonal antibody; also called P013.A.00088.A02
- functional reporter gene assay (% inhibition), 0.04 µg/mL mAb [1]: 11%
- functional reporter gene assay (% inhibition), 0.2 µg/mL mAb [1]: 9%
- functional reporter gene assay (% inhibition), 1 µg/mL mAb [1]: 8%
- functional reporter gene assay (% inhibition), 5 µg/mL mAb [1]: -6%
- primary supernatant functional assay (% inh.), NF-kB luciferase reporter [1]: -37%
- EC50 (mIL1RAcP-Fc [2]): 0.385 µg/mL
- hu-IL1RaP ELISA (OD) (rhIL-1RAcP/Fc Chimera [3]): 3.6 OD
- mu-IL1RaP ELISA (OD) (mIL1RAcP-Fc [4]): 3.5 OD
